From US20240261333A1, “NOVEL TARGETS FOR ENHANCING ANTI-TUMOR IMMUNITY” (THE BROAD INSTITUTE, INC., priority 2021, published 2024)

Assays:
ARPC1B (human) = ARPC1B (human) (UniProt O15143); experiment: co-IP with anti-FLAG, C-FLAG B3GNT2, mass spectrometry
CALML5 (human) = CALML5 (human) (UniProt Q9NZT1); experiment: as above
CCT3 (human) = CCT3 (human) (UniProt P49368); experiment: as above
COPA (human) = COPA (human) (UniProt P53621); experiment: as above
DHX9 (human) = DHX9 (human) (UniProt Q08211); experiment: as above
EIF3A (human) = EIF3A (human) (UniProt Q14152); experiment: as above
GBF1 (human) = GBF1 (human) (UniProt Q92538); experiment: as above
GEMIN4 (human) = GEMIN4 (human) (UniProt P57678); experiment: as above
LUC7L3 (human) = LUC7L3 (human) (UniProt O95232); experiment: as above
MMP14 (human) = MMP14 (human) (UniProt P50281); experiment: as above
NAP1L1 (human) = NAP1L1 (human) (UniProt P55209); experiment: as above
P4HA2 (human) = P4HA2 (human) (UniProt O15460); experiment: as above
PRRC2C (human) = PRRC2C (human) (UniProt Q9Y520); experiment: as above
RBM14 (human) = RBM14 (human) (UniProt Q96PK6); experiment: as above
RPL28 (human) = RPL28 (human) (UniProt P46779); experiment: as above
RPL6 (human) = RPL6 (human) (UniProt Q02878); experiment: as above
RPL7 (human) = RPL7 (human) (UniProt P18124); experiment: as above
RPL7A (human) = RPL7A (human) (UniProt P62424); experiment: as above
RPL8 (human) = RPL8 (human) (UniProt P62917); experiment: as above
RPS24 (human) = RPS24 (human) (UniProt P62847); experiment: as above
RPS27A (human) = RPS27A (human) (UniProt P62979); experiment: as above
RUVBL2 (human) = RUVBL2 (human) (UniProt Q9Y230); experiment: as above
SERPINB3 (human) = SERPINB3 (human) (UniProt P29508); experiment: as above
SPARC (human) = SPARC (human) (UniProt P09486); experiment: as above
SYNM (human) = SYNM (human) (UniProt O15061); experiment: as above
SYNPO (human) = SYNPO (human) (UniProt Q8N3V7); experiment: as above
TBL2 (human) = TBL2 (human) (UniProt Q9Y4P3); experiment: as above
TELO2 (human) = TELO2 (human) (UniProt Q9Y4R8); experiment: as above
TM9SF1 (human) = TM9SF1 (human) (UniProt O15321); experiment: as above
TPM2 (human) = TPM2 (human) (UniProt P07951); experiment: as above
TPM3 (human) = TPM3 (human) (UniProt P06753); experiment: as above
TTC13 (human) = TTC13 (human) (UniProt Q8NBP0); experiment: as above
XPO1 (human) = XPO1 (human) (UniProt O14980); experiment: as above
CEP170 = CEP170 (UniProt Q5SW79); experiment: co-IP, anti-FLAG, lysate of C-FLAG B3GNT2 cells, mass spectrometry
GNAS = GNAS (UniProt Q5JWF2); experiment: as above
LRPPRC = LRPPRC (UniProt P42704); experiment: as above
MYO1D = MYO1D (UniProt O94832); experiment: as above
SLC25A10 = SLC25A10 (UniProt Q9UBX3); experiment: as above
TNC = TNC (UniProt P24821); experiment: as above
TRIM28 = TRIM28 (UniProt Q13263); experiment: as above

Sequence of CALML5 (human) (Q9NZT1 2-146 limits assumed): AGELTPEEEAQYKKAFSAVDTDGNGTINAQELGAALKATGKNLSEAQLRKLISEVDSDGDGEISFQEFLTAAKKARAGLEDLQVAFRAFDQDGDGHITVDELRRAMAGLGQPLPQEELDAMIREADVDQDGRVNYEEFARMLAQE
Sequence of COPA (human) (P53621 whole entry): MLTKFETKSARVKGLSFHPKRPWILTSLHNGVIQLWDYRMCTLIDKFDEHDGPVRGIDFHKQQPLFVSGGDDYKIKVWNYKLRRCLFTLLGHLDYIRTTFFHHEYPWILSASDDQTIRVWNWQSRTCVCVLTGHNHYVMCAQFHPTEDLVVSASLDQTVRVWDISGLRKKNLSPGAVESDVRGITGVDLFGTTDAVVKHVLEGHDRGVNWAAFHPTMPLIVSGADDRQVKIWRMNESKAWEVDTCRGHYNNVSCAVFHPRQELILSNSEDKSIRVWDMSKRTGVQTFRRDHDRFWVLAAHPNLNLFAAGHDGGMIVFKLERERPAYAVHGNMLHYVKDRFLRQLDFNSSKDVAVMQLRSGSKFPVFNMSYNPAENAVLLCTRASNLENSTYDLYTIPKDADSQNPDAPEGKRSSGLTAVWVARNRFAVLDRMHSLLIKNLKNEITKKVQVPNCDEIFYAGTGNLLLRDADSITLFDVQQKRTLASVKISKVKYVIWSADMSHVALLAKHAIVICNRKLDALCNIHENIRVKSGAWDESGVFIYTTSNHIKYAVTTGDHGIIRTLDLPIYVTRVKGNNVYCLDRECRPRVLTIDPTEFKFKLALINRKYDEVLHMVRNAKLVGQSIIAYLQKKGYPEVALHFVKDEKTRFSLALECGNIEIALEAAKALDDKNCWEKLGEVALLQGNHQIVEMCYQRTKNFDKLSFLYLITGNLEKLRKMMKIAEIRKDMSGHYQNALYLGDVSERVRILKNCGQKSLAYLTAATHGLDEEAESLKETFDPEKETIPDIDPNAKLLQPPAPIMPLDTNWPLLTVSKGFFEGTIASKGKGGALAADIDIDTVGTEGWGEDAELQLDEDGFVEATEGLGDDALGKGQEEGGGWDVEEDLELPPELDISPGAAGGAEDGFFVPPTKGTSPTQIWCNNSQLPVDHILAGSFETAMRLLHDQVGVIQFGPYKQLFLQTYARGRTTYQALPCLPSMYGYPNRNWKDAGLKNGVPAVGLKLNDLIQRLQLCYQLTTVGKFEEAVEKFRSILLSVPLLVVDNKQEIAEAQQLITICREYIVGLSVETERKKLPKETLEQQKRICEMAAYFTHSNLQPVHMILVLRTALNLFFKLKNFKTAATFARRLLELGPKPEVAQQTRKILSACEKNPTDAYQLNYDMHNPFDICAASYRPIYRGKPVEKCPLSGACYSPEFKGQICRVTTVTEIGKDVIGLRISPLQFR
Sequence of MYO1D (O94832 2-1006 limits assumed): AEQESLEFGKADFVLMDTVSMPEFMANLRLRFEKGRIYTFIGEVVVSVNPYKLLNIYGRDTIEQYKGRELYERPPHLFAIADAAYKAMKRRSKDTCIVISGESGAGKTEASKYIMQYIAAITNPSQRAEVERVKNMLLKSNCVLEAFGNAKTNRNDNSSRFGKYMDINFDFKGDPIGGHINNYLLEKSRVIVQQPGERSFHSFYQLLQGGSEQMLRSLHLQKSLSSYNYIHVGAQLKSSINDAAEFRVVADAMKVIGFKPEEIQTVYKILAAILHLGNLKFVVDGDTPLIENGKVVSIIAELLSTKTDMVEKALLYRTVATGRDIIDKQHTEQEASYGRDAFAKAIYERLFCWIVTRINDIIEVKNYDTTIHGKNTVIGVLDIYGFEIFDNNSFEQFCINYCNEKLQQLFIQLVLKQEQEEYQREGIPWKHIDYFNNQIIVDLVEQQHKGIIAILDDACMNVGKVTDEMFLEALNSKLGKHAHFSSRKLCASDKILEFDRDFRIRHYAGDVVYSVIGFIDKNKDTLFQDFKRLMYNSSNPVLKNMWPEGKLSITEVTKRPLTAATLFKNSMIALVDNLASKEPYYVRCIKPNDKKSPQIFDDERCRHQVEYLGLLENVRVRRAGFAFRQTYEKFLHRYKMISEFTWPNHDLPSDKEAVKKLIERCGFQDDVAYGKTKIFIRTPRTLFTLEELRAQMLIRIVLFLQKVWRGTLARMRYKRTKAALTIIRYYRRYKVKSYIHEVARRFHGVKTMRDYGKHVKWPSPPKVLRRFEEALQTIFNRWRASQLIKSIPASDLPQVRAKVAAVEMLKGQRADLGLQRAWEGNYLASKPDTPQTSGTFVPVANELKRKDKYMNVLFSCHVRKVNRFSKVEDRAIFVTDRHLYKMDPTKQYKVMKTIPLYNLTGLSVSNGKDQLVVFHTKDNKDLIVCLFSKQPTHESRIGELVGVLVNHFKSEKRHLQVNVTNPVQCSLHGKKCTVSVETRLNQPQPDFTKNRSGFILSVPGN
Sequence of SPARC (human) (P09486 18-303 limits assumed): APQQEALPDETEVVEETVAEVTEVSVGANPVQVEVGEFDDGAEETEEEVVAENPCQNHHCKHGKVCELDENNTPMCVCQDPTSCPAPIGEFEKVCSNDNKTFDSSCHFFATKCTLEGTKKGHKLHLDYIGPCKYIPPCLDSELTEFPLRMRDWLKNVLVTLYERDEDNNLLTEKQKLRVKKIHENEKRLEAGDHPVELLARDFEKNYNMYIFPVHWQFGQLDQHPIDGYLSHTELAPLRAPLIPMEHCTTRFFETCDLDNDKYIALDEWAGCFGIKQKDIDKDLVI
Sequence of DHX9 (human) (Q08211 whole entry): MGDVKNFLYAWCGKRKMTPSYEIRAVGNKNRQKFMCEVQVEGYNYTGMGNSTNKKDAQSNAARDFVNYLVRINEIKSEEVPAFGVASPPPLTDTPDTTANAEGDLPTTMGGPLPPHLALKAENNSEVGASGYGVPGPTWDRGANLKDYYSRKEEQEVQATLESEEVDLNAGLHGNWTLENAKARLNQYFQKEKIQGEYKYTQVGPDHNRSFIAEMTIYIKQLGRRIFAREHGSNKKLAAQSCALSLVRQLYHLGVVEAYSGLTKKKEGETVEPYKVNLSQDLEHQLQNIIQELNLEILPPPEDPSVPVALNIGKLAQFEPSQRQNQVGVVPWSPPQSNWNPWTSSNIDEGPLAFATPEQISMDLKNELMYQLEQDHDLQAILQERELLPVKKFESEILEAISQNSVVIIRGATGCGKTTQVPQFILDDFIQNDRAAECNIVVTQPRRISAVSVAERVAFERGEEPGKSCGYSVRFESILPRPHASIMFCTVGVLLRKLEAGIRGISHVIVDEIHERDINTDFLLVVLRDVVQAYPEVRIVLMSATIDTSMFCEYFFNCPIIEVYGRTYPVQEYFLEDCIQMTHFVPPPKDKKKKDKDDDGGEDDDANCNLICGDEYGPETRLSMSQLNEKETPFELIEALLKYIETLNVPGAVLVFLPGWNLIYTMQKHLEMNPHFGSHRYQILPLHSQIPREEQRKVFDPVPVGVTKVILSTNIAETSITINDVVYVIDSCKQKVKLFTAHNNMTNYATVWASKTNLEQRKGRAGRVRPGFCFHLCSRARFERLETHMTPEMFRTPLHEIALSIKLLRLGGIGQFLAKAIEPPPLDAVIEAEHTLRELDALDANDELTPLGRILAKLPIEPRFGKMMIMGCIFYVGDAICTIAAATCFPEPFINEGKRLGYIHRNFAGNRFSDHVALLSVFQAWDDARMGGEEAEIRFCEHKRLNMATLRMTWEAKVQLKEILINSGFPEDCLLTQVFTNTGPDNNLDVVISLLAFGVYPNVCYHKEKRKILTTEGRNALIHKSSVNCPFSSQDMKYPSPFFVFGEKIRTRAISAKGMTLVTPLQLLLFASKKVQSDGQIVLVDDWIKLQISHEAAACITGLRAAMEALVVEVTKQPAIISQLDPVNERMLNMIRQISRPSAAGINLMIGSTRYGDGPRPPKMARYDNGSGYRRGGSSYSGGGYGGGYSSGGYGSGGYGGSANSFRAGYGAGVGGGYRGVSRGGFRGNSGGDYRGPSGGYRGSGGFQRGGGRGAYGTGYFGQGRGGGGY
Sequence of RBM14 (human) (Q96PK6 whole entry): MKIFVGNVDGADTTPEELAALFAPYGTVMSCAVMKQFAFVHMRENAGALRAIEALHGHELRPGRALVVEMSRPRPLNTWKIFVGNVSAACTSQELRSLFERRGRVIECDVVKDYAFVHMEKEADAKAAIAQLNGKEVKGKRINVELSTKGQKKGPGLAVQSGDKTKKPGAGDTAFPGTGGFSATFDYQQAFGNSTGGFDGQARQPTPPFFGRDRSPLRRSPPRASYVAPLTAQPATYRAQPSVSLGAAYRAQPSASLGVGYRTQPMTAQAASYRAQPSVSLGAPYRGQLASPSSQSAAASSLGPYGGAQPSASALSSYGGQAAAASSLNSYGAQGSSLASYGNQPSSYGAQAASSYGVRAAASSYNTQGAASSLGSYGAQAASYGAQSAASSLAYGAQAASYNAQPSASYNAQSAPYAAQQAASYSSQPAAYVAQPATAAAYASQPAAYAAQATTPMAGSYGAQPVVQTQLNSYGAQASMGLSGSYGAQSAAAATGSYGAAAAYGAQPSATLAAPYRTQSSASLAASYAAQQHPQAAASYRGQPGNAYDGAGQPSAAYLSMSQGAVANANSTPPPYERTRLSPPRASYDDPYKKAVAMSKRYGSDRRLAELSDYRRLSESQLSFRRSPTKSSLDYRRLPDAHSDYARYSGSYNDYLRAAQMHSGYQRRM
Sequence of RUVBL2 (human) (Q9Y230 2-463 limits assumed): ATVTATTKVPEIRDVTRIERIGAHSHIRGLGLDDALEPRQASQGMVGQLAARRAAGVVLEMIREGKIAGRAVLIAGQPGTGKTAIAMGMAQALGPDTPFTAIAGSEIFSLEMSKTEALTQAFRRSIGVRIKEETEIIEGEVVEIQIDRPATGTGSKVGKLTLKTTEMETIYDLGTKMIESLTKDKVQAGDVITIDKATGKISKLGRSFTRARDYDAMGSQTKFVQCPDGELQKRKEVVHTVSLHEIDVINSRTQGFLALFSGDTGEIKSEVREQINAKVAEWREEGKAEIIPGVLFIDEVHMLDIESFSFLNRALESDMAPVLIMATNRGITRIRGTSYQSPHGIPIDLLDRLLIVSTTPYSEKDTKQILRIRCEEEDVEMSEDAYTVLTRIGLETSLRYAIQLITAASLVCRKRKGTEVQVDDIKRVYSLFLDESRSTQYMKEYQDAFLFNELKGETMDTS

## C-terminal FLAG tagged B3GNT2 (from UniProt Q9NY97 1-397) (enzyme)
ARPC1B (human)
  co-IP/MS count, C-term flag: 5
CALML5 (human)
  co-IP mass spectrometry count: 4
CCT3 (human)
  co-IP mass spectrometry count: 5
COPA (human)
  co-IP/MS count, C-term flag: 2
DHX9 (human)
  co-IP mass spectrometry count: 5
EIF3A (human)
  co-IP mass spectrometry count: 3
GBF1 (human)
  co-IP mass spectrometry count: 5
GEMIN4 (human)
  co-IP mass spectrometry count: 5
LUC7L3 (human)
  co-IP/MS count, C-term flag: 3
MMP14 (human)
  co-IP/MS count, C-term flag: 2
NAP1L1 (human)
  co-IP/MS count, C-term flag: 4
P4HA2 (human)
  co-IP/MS count, C-term flag: 4
PRRC2C (human)
  co-IP/MS count, C-term flag: 15
RBM14 (human)
  co-IP/MS count, C-term flag: 2
RPL28 (human)
  co-IP mass spectrometry count: 16
RPL6 (human)
  co-IP/MS count, C-term flag: 20
RPL7 (human)
  co-IP mass spectrometry count: 21
RPL7A (human)
  co-IP/MS count, C-term flag: 22
RPL8 (human)
  co-IP mass spectrometry count: 15
RPS24 (human)
  co-IP/MS count, C-term flag: 8
RPS27A (human)
  co-IP mass spectrometry count: 27
RUVBL2 (human)
  co-IP/MS count, C-term flag: 4
SERPINB3 (human)
  co-IP mass spectrometry count: 9
SPARC (human)
  co-IP/MS count, C-term flag: 4
SYNM (human)
  co-IP mass spectrometry count: 5
SYNPO (human)
  co-IP mass spectrometry count: 7
TBL2 (human)
  co-IP mass spectrometry count: 5
TELO2 (human)
  co-IP mass spectrometry count: 3
TM9SF1 (human)
  co-IP/MS count, C-term flag: 4
TPM2 (human)
  co-IP/MS count, C-term flag: 4
TPM3 (human)
  co-IP mass spectrometry count: 5
TTC13 (human)
  co-IP/MS count, C-term flag: 4
XPO1 (human)
  co-IP/MS count, C-term flag: 2
CEP170
  co-IP/MS count: 2
GNAS
  co-IP/MS count: 2
LRPPRC
  co-IP/MS count: 9
MYO1D
  co-IP/MS count: 2
SLC25A10
  co-IP/MS count: 6
TNC
  co-IP/MS count: 10
TRIM28
  co-IP/MS count: 8
